Measured values published in doi:10.1101/2025.01.13.632879.
Blank lines part the entries; values can stand above or below the substance they belong to.

Tests used:
Assay in all cases: SEC
[1] = target: Clostridioides difficile GerS K71R, His6-tagged (Clostridioides difficile)
[2] = target: Clostridioides difficile GerS N74L, His6-tagged (Clostridioides difficile)
[3] = target: Clostridioides difficile GerS T72P, His6-tagged (Clostridioides difficile)
[4] = target: Clostridioides difficile GerS, His6-tagged (wild type) (Clostridioides difficile)
[5] = target: GerS ortholog from Paraclostridium bifermentans, His6-tagged (Paraclostridium bifermentans)
[6] = target: GerS ortholog from Paraclostridium sordellii, His6-tagged (Paraclostridium sordellii)

Substance: Clostridioides difficile GerS K71R, His6-tagged (natural protein)
stoichiometry N [1]: 2

Substance: Clostridioides difficile GerS N74L, His6-tagged (natural protein)
stoichiometry N [2]: 2

Substance: Clostridioides difficile GerS T72P, His6-tagged (natural protein)
stoichiometry N [3]: 2

Substance: Clostridioides difficile GerS, His6-tagged (wild type) (natural protein)
stoichiometry N [4]: 2

Substance: GerS ortholog from Paraclostridium bifermentans, His6-tagged (natural protein)
stoichiometry N [5]: 2

stoichiometry N [6]: 2
Substance: GerS ortholog from Paraclostridium sordellii, His6-tagged (natural protein)
